Measured values reported in patent publication US20220017612A1.

Biological target: biotinylated human LAP-TGFβ1 (Example 14) (human) (UniProt P01137)
Assay: BLI, antigen on tip, CHO supernatant; ratio to wild type

biotinylated human LAP-TGFβ1 (Example 14) (human), sequence (P01137 30-390 limits assumed): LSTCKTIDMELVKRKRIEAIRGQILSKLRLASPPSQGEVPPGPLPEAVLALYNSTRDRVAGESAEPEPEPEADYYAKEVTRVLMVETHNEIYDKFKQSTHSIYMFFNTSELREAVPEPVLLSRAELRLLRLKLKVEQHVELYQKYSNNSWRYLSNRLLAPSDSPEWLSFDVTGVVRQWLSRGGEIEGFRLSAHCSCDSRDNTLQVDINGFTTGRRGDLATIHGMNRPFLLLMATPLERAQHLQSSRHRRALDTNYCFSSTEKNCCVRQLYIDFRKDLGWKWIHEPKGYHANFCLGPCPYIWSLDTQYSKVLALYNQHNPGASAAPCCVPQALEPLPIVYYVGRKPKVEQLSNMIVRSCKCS

Binder	KD,WT/KD,Ala
20E6_H0.2aL1_hIgG1 VH_R50A (antibody, V domains shown) VH: EVQLVQSGAEVKKPGASVKVSCKASGYTFTSYWMHWVRQAPGQGLEWMGAIDPQSGGIKYAQKFQGRATLTVDTSTSTAYMELSRLRSDDTAVYYCARWDYGGYFDVWGQGTLVTVSS VL: DIQMTQSPSSLSASVGDRVTITCRASQDITNYLNWYQQKPGKAVKLLIYYTSRLHSGVPSRFSGSGSGTDYTLTISSLQPEDFATYFCQQGDTLPWTFGQGTKLEIKR	0
20E6_H0.2aL1_hIgG1 VL_D92A (antibody, V domains shown) VH: EVQLVQSGAEVKKPGASVKVSCKASGYTFTSYWMHWVRQAPGQGLEWMGRIDPQSGGIKYAQKFQGRATLTVDTSTSTAYMELSRLRSDDTAVYYCARWDYGGYFDVWGQGTLVTVSS VL: DIQMTQSPSSLSASVGDRVTITCRASQDITNYLNWYQQKPGKAVKLLIYYTSRLHSGVPSRFSGSGSGTDYTLTISSLQPEDFATYFCQQGATLPWTFGQGTKLEIKR	0
20E6_H0.2aL1_hIgG1 VL_G91A (antibody, V domains shown) VH: EVQLVQSGAEVKKPGASVKVSCKASGYTFTSYWMHWVRQAPGQGLEWMGRIDPQSGGIKYAQKFQGRATLTVDTSTSTAYMELSRLRSDDTAVYYCARWDYGGYFDVWGQGTLVTVSS VL: DIQMTQSPSSLSASVGDRVTITCRASQDITNYLNWYQQKPGKAVKLLIYYTSRLHSGVPSRFSGSGSGTDYTLTISSLQPEDFATYFCQQADTLPWTFGQGTKLEIKR	0
20E6_H0.2aL1_hIgG1 VH_G103A (antibody, V domains shown) VH: EVQLVQSGAEVKKPGASVKVSCKASGYTFTSYWMHWVRQAPGQGLEWMGRIDPQSGGIKYAQKFQGRATLTVDTSTSTAYMELSRLRSDDTAVYYCARWDYGAYFDVWGQGTLVTVSS VL: DIQMTQSPSSLSASVGDRVTITCRASQDITNYLNWYQQKPGKAVKLLIYYTSRLHSGVPSRFSGSGSGTDYTLTISSLQPEDFATYFCQQGDTLPWTFGQGTKLEIKR	0
20E6_H0.2aL1_hIgG1 VH_Y101A (antibody, V domains shown) VH: EVQLVQSGAEVKKPGASVKVSCKASGYTFTSYWMHWVRQAPGQGLEWMGRIDPQSGGIKYAQKFQGRATLTVDTSTSTAYMELSRLRSDDTAVYYCARWDAGGYFDVWGQGTLVTVSS VL: DIQMTQSPSSLSASVGDRVTITCRASQDITNYLNWYQQKPGKAVKLLIYYTSRLHSGVPSRFSGSGSGTDYTLTISSLQPEDFATYFCQQGDTLPWTFGQGTKLEIKR	0
20E6_H0.2aL1_hIgG1 VH_F105A (antibody, V domains shown) VH: EVQLVQSGAEVKKPGASVKVSCKASGYTFTSYWMHWVRQAPGQGLEWMGRIDPQSGGIKYAQKFQGRATLTVDTSTSTAYMELSRLRSDDTAVYYCARWDYGGYADVWGQGTLVTVSS VL: DIQMTQSPSSLSASVGDRVTITCRASQDITNYLNWYQQKPGKAVKLLIYYTSRLHSGVPSRFSGSGSGTDYTLTISSLQPEDFATYFCQQGDTLPWTFGQGTKLEIKR	0
20E6_H0.2aL1_hIgG1 VL_L33A (antibody, V domains shown) VH: EVQLVQSGAEVKKPGASVKVSCKASGYTFTSYWMHWVRQAPGQGLEWMGRIDPQSGGIKYAQKFQGRATLTVDTSTSTAYMELSRLRSDDTAVYYCARWDYGGYFDVWGQGTLVTVSS VL: DIQMTQSPSSLSASVGDRVTITCRASQDITNYANWYQQKPGKAVKLLIYYTSRLHSGVPSRFSGSGSGTDYTLTISSLQPEDFATYFCQQGDTLPWTFGQGTKLEIKR	0.08
20E6_H0.2aL1_hIgG1 VL_D28A (antibody, V domains shown) VH: EVQLVQSGAEVKKPGASVKVSCKASGYTFTSYWMHWVRQAPGQGLEWMGRIDPQSGGIKYAQKFQGRATLTVDTSTSTAYMELSRLRSDDTAVYYCARWDYGGYFDVWGQGTLVTVSS VL: DIQMTQSPSSLSASVGDRVTITCRASQAITNYLNWYQQKPGKAVKLLIYYTSRLHSGVPSRFSGSGSGTDYTLTISSLQPEDFATYFCQQGDTLPWTFGQGTKLEIKR	0
20E6_H0.2aL1_hIgG1 VH_Y104A (antibody, V domains shown) VH: EVQLVQSGAEVKKPGASVKVSCKASGYTFTSYWMHWVRQAPGQGLEWMGRIDPQSGGIKYAQKFQGRATLTVDTSTSTAYMELSRLRSDDTAVYYCARWDYGGAFDVWGQGTLVTVSS VL: DIQMTQSPSSLSASVGDRVTITCRASQDITNYLNWYQQKPGKAVKLLIYYTSRLHSGVPSRFSGSGSGTDYTLTISSLQPEDFATYFCQQGDTLPWTFGQGTKLEIKR	0
20E6_H0.2aL1_hIgG1 VH_G102A (antibody, V domains shown) VH: EVQLVQSGAEVKKPGASVKVSCKASGYTFTSYWMHWVRQAPGQGLEWMGRIDPQSGGIKYAQKFQGRATLTVDTSTSTAYMELSRLRSDDTAVYYCARWDYAGYFDVWGQGTLVTVSS VL: DIQMTQSPSSLSASVGDRVTITCRASQDITNYLNWYQQKPGKAVKLLIYYTSRLHSGVPSRFSGSGSGTDYTLTISSLQPEDFATYFCQQGDTLPWTFGQGTKLEIKR	0
20E6_H0.2aL1_hIgG1 VL_L94A (antibody, V domains shown) VH: EVQLVQSGAEVKKPGASVKVSCKASGYTFTSYWMHWVRQAPGQGLEWMGRIDPQSGGIKYAQKFQGRATLTVDTSTSTAYMELSRLRSDDTAVYYCARWDYGGYFDVWGQGTLVTVSS VL: DIQMTQSPSSLSASVGDRVTITCRASQDITNYLNWYQQKPGKAVKLLIYYTSRLHSGVPSRFSGSGSGTDYTLTISSLQPEDFATYFCQQGDTAPWTFGQGTKLEIKR	0
20E6_H0.2aL1_hIgG1 VL_A25G (antibody, V domains shown) VH: EVQLVQSGAEVKKPGASVKVSCKASGYTFTSYWMHWVRQAPGQGLEWMGRIDPQSGGIKYAQKFQGRATLTVDTSTSTAYMELSRLRSDDTAVYYCARWDYGGYFDVWGQGTLVTVSS VL: DIQMTQSPSSLSASVGDRVTITCRGSQDITNYLNWYQQKPGKAVKLLIYYTSRLHSGVPSRFSGSGSGTDYTLTISSLQPEDFATYFCQQGDTLPWTFGQGTKLEIKR	0.09
20E6_H0.2aL1_hIgG1 VH_W99A (antibody, V domains shown) VH: EVQLVQSGAEVKKPGASVKVSCKASGYTFTSYWMHWVRQAPGQGLEWMGRIDPQSGGIKYAQKFQGRATLTVDTSTSTAYMELSRLRSDDTAVYYCARADYGGYFDVWGQGTLVTVSS VL: DIQMTQSPSSLSASVGDRVTITCRASQDITNYLNWYQQKPGKAVKLLIYYTSRLHSGVPSRFSGSGSGTDYTLTISSLQPEDFATYFCQQGDTLPWTFGQGTKLEIKR	0

More lines, now with the values ahead:

KD,WT/KD,Ala	Binder
0	20E6_H0.2aL1_hIgG1 VL_Q90A (antibody, V domains shown) VH: EVQLVQSGAEVKKPGASVKVSCKASGYTFTSYWMHWVRQAPGQGLEWMGRIDPQSGGIKYAQKFQGRATLTVDTSTSTAYMELSRLRSDDTAVYYCARWDYGGYFDVWGQGTLVTVSS VL: DIQMTQSPSSLSASVGDRVTITCRASQDITNYLNWYQQKPGKAVKLLIYYTSRLHSGVPSRFSGSGSGTDYTLTISSLQPEDFATYFCQAGDTLPWTFGQGTKLEIKR
0	20E6_H0.2aL1_hIgG1 VL_W96A (antibody, V domains shown) VH: EVQLVQSGAEVKKPGASVKVSCKASGYTFTSYWMHWVRQAPGQGLEWMGRIDPQSGGIKYAQKFQGRATLTVDTSTSTAYMELSRLRSDDTAVYYCARWDYGGYFDVWGQGTLVTVSS VL: DIQMTQSPSSLSASVGDRVTITCRASQDITNYLNWYQQKPGKAVKLLIYYTSRLHSGVPSRFSGSGSGTDYTLTISSLQPEDFATYFCQQGDTLPATFGQGTKLEIKR
0	20E6_H0.2aL1_hIgG1 VL_Y32A (antibody, V domains shown) VH: EVQLVQSGAEVKKPGASVKVSCKASGYTFTSYWMHWVRQAPGQGLEWMGRIDPQSGGIKYAQKFQGRATLTVDTSTSTAYMELSRLRSDDTAVYYCARWDYGGYFDVWGQGTLVTVSS VL: DIQMTQSPSSLSASVGDRVTITCRASQDITNALNWYQQKPGKAVKLLIYYTSRLHSGVPSRFSGSGSGTDYTLTISSLQPEDFATYFCQQGDTLPWTFGQGTKLEIKR
0.03	20E6_H0.2aL1_hIgG1 VL_Q27A (antibody, V domains shown) VH: EVQLVQSGAEVKKPGASVKVSCKASGYTFTSYWMHWVRQAPGQGLEWMGRIDPQSGGIKYAQKFQGRATLTVDTSTSTAYMELSRLRSDDTAVYYCARWDYGGYFDVWGQGTLVTVSS VL: DIQMTQSPSSLSASVGDRVTITCRASADITNYLNWYQQKPGKAVKLLIYYTSRLHSGVPSRFSGSGSGTDYTLTISSLQPEDFATYFCQQGDTLPWTFGQGTKLEIKR
0	20E6_H0.2aL1_hIgG1 VL_Y50A (antibody, V domains shown) VH: EVQLVQSGAEVKKPGASVKVSCKASGYTFTSYWMHWVRQAPGQGLEWMGRIDPQSGGIKYAQKFQGRATLTVDTSTSTAYMELSRLRSDDTAVYYCARWDYGGYFDVWGQGTLVTVSS VL: DIQMTQSPSSLSASVGDRVTITCRASQDITNYLNWYQQKPGKAVKLLIYATSRLHSGVPSRFSGSGSGTDYTLTISSLQPEDFATYFCQQGDTLPWTFGQGTKLEIKR
0	20E6_H0.2aL1_hIgG1 VL_P95A (antibody, V domains shown) VH: EVQLVQSGAEVKKPGASVKVSCKASGYTFTSYWMHWVRQAPGQGLEWMGRIDPQSGGIKYAQKFQGRATLTVDTSTSTAYMELSRLRSDDTAVYYCARWDYGGYFDVWGQGTLVTVSS VL: DIQMTQSPSSLSASVGDRVTITCRASQDITNYLNWYQQKPGKAVKLLIYYTSRLHSGVPSRFSGSGSGTDYTLTISSLQPEDFATYFCQQGDTLAWTFGQGTKLEIKR
0.01	20E6_H0.2aL1_hIgG1 VL_T97A (antibody, V domains shown) VH: EVQLVQSGAEVKKPGASVKVSCKASGYTFTSYWMHWVRQAPGQGLEWMGRIDPQSGGIKYAQKFQGRATLTVDTSTSTAYMELSRLRSDDTAVYYCARWDYGGYFDVWGQGTLVTVSS VL: DIQMTQSPSSLSASVGDRVTITCRASQDITNYLNWYQQKPGKAVKLLIYYTSRLHSGVPSRFSGSGSGTDYTLTISSLQPEDFATYFCQQGDTLPWAFGQGTKLEIKR
0.07	20E6_H0.2aL1_hIgG1 VL_N34A (antibody, V domains shown) VH: EVQLVQSGAEVKKPGASVKVSCKASGYTFTSYWMHWVRQAPGQGLEWMGRIDPQSGGIKYAQKFQGRATLTVDTSTSTAYMELSRLRSDDTAVYYCARWDYGGYFDVWGQGTLVTVSS VL: DIQMTQSPSSLSASVGDRVTITCRASQDITNYLAWYQQKPGKAVKLLIYYTSRLHSGVPSRFSGSGSGTDYTLTISSLQPEDFATYFCQQGDTLPWTFGQGTKLEIKR
